# Reference: publication PMC7060258
# Assays:
# [1] = target: recombinant HCIQ2c1 Kunitz-type peptide from Heteractis crispa (Heteractis crispa); assay: SPR; Biacore 3000; peptides covalently immobilised on a CM4 chip (970 RU rHCIQ2c1, 460 RU rHCIQ4c7); proteinases 1 nM to 5 μM flowed over; 25 °C; HBS: 0.15 M NaCl, 0.01 M HEPES, pH 7.4
# [2] = target: recombinant HCIQ2c1 Kunitz-type peptide from Heteractis crispa (Heteractis crispa); assay: SPR; rHCIQ2c1 immobilised on a CM4 chip; temperature range of 10–40 °С at an interval of 5 °С; enthalpy from the temperature dependence of ΔG (Van't Hoff diagram)
# recombinant HCIQ2c1 Kunitz-type peptide from Heteractis crispa (Heteractis crispa), sequence (A0A6B7FBD3 28-85): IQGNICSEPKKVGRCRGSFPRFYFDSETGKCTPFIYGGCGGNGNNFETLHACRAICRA
substance,measurement,setting,value
cathepsin G (from UniProt P08311 21-244) (enzyme),Ka,[1],3.58e+09 M⁻¹
same,Kd,[1],0.279 nM
same,koff,[1],0.000359 s⁻¹
same,kon,[1],1.29e+06 M⁻¹ s⁻¹
α-chymotrypsin (enzyme),Ka,[1],1.03e+07 M⁻¹
same,Kd,[1],97.4 nM
same,koff,[1],0.00749 s⁻¹
same,kon,[1],76900 M⁻¹ s⁻¹
same,dH,[2],4.68 kcal/mol
